# Laboratory results taken from paper PMC11711097 (Nature, 2024).
# Where a chain is given by its changes, count along the chain named. Names and notes keep the numbering of the source.
# B1: Endogenous NINJ1 of mouse bone marrow-derived macrophages (natural protein)
# chain: MESGTEEYELNGDLRPGSPGSPDALPPRWGLRNRPINVNHYANKKSAAESMLDIALLMANASQLKAVVEQGNDFAFFVPLVVLISISLVLQIGVGVLLIFLVKYDLNNPAKHAKLDFLNNLATGLVFIIVVVNIFITAFGVQKPVMDVAPRQ
# B2: Full-length mouse NINJ1(K45Q) (natural protein)
# chain: B1 chain with K45Q
# B3: Nb538 (His-tagged, purified) (VHH)
# VHH: EVQLVESGGGLVQPGGSLRLSCAASGFNVYSSSYYYVGWVRRAPGKGEELVARISPSYGYTYYADSVKGRFTISADTSKNTAYLQMNSLRAEDTAVYYCEVYIFGQYFESGQGTLVTVSS
# Legend:
# cross-linking = target: the molecule itself; experiment: cross-linking
# cryo-EM structure = target: the molecule itself; experiment: cryo-EM structure
# [1] = target: Full-length mouse NINJ1(K45Q) (mouse, UniProt O70131, K45Q); experiment: SPR
binder,measurement,setting,value
B1,stoichiometry N,cross-linking,2 subunits
B2,stoichiometry N,cryo-EM structure,4 subunits
B3,Kd,[1],24 nM
